Data set [1] deals with the molecule itself. The data set can be described thus: AUC.
Data set [2] deals with the molecule itself. In words: AUC. The source holds these as a separate data set.

Like-named read-outs stand apart in the source and are kept apart here.

Take MAGNGCDAALALLLLDRLNQLESKMSGKGQQQQGQTV [NLRS:G215C peptide, listing 1 of 2 here]: the binding result in the data set “AUC [1]” is given as “binds”.
With MAGNGCDAALALMLLDRLNQLESKMSGKGQQQQGQTV [NLRS:L222M/G215C double mutant peptide], the binding result in “AUC [2]” is recorded as “binds”.
For MAGNGSDAALALLLLDRLNQLESKMSGKGQQQQGQTV [NLRS:G215S peptide, listing 1 of 2 here], the binding result in “AUC [2]” is reported as “binds”.
Take MAGNGCDAALALLLLDRLNQLESKMSGKGQQQQGQTV [NLRS:G215C peptide, listing 2 of 2 here]: the binding result in “AUC [2]” was “binds”.
Consider MAGNGSDAALALLLLDRLNQLESKMSGKGQQQQGQTV [NLRS:G215S peptide, listing 2 of 2 here], for which, in the data set “AUC [1]”, the binding result is reported as “binds”.
As to MAGNGGDAALALMLLDRLNQLESKMSGKGQQQQGQTV [NLRS:L222M peptide], the binding result in the data set “AUC [2]” was “binds”.

The values are drawn from PMC10075959 (Science Advances, 2023).
